# Source: patent US20230104540A1 (NEURACLE SCIENCE, published 2023)
# T1: CD58-Fc (UniProt P19256 29-215, limits assumed)
# T1 construct: Control antigen
# T1 sequence (looked up): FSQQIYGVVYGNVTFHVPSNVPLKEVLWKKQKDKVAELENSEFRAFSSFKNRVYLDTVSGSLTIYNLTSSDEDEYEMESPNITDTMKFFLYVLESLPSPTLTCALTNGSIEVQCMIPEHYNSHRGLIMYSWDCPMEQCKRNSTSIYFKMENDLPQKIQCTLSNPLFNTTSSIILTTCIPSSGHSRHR
# T2: AITR-Fc (UniProt Q9Y5U5 26-161, limits assumed)
# T2 construct: also called AIRTR
# T2 sequence (looked up): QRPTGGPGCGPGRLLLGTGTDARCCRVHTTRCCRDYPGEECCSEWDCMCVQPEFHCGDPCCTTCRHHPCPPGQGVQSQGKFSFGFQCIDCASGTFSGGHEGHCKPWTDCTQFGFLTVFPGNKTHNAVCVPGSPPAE
# Assays:
# [1] = target: FAM19A1 mutant M6 (Mus musculus (Mouse), UniProt Q7TPG8 20-133); assay: ELISA on plate-coated mutant, anti-hKappa-HRP detection
# [2] = target: Fam19A1-M1; assay: ELISA on coated FAM19A1 protein (500 ng), one antibody amount, anti-hKappa-HRP (Example 4)
# [3] = target: Fam19A1-M2; assay: as above
# [4] = target: Fam19A1-M3; assay: as above
# [5] = target: Fam19A1-M4; assay: as above
# [6] = target: Fam19A1-M5; assay: as above
# [7] = target: Fam19A1-M7; assay: as above
# [8] = target: Wild-type FAM19A1 (Table 10) (Mus musculus (Mouse), UniProt Q7TPG8 20-133); assay: as above
# [9] = target: T3, FAM19A1 protein (ELISA of Example 3) (Homo sapiens (Human), UniProt Q7Z5A9 20-133); assay: ELISA, IgG titrated from 0 to 100 nM on FAM19A1 protein (Example 3); Kd row of the table under the graph, R square 0.9527, the concentration axis reads Cons (nM); fitted curve levels off at A450 about 2.8, last point at 100 nM about 3.1
# [10] = target: T1, CD58-Fc; assay: mono scFv-phage ELISA on coated antigen, single point (Example 2)
# [11] = target: T4, hRAGE-Fc (human (by the label hRAGE), UniProt Q15109 23-344, limits assumed); assay: as above
# T4 construct: Control antigen
# [12] = target: T2, AITR-Fc; assay: as above
# [13] = target: T3, FAM19A1 protein (ELISA of Example 3); assay: ELISA, IgG titrated from 0 to 100 nM on FAM19A1 protein (Example 3); Kd row of the table under the graph, R square 0.9106, the concentration axis reads Cons (nM); fitted curve levels off low, at A450 about 0.75
# [14] = target: T3, FAM19A1 protein (ELISA of Example 3); assay: ELISA, IgG titrated from 0 to 100 nM on FAM19A1 protein (Example 3); Kd row of the table under the graph, R square 0.9168, the concentration axis reads Cons (nM); the curve is faint and not told apart from that of 1A11
# T4 sequence (Q15109 23-344 limits assumed): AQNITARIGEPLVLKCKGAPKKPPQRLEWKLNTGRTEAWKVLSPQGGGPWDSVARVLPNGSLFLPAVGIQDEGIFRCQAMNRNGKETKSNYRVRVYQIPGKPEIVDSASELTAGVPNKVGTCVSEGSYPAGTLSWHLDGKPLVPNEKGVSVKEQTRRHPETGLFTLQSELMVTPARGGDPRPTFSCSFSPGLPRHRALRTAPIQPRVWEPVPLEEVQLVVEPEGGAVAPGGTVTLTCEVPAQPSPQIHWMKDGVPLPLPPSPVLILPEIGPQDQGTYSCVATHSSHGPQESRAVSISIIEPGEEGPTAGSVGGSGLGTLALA
binder,measurement,setting,value
"anti-FAM19A1 IgG1 antibody clone 1C1 (antibody, V domains shown, also called A1-1C1; FAM19A1-1C1) VH: QVQLVESGGGVAQPGRSLRLSCAASGFAFSDYGIHWVRQAPGKGLEWVALISYDGSKRSYADSVKGRFAISRDNSKNTLYLQMNSLRAEDTAVYYCARPGDYALAFDLWGQGTMVTVSS VL: QTVVTQEPSFSVSPGETVTLTCGLSSGSVSTSHFPSWYRQTPGQAPRPLIDSRNARSIGVPDRFSGSIVGTKATLTISGAQAEDECNYYCALYMGRGNWVFGGGTKLTVL",binding result,[1],no binding
same,binding result,[2],binds
same,binding result,[3],binds
same,binding result,[4],binds
same,binding result,[5],binds
same,binding result,[6],binds
same,binding result,[7],binds
same,binding result,[8],binds
same,Kd,[9],1.13 nM
"Anti-FAM19A1 1C1 mono scFv-phage clone (scFv, V domains shown) VH: QVQLVESGGGVAQPGRSLRLSCAASGFAFSDYGIHWVRQAPGKGLEWVALISYDGSKRSYADSVKGRFAISRDNSKNTLYLQMNSLRAEDTAVYYCARPGDYALAFDLWGQGTMVTVSS VL: QTVVTQEPSFSVSPGETVTLTCGLSSGSVSTSHFPSWYRQTPGQAPRPLIDSRNARSIGVPDRFSGSIVGTKATLTISGAQAEDECNYYCALYMGRGNWVFGGGTKLTVL",binding result,[10],no binding
same,binding result,[11],no binding
same,binding result,[12],no binding
"anti-FAM19A1-1A11 (antibody, V domains shown, also called anti-FAM19A1 IgG1 antibody clone 1A11; A1-1A11-Ybio) VH: QVQLVESGAEVRKPGASVKVSCKASGYSFTGYDINWVRQAPGQGLEWMGWMNPSSGNTGYAQKFQGRVTMTRDSSISTAYMELSSLRSEDTAVYYCARALNSVYYYHALDVWGQGTTITVSS VL: SYELTQPPSASVSPGQTASITCSGDRLHNKYTSWYQQKPGQSPLLVIYQDAKRPSGIPERFSGSSSRGTATLTISGTQATDEADYYCQTWDRSTGVFGTGTKVTVL",binding result,[2],binds
same,binding result,[3],binds
"Anti-FAM19A1 1A11 mono scFv-phage clone (scFv, V domains shown) VH: QVQLVESGAEVRKPGASVKVSCKASGYSFTGYDINWVRQAPGQGLEWMGWMNPSSGNTGYAQKFQGRVTMTRDSSISTAYMELSSLRSEDTAVYYCARALNSVYYYHALDVWGQGTTITVSS VL: SYELTQPPSASVSPGQTASITCSGDRLHNKYTSWYQQKPGQSPLLVIYQDAKRPSGIPERFSGSSSRGTATLTISGTQATDEADYYCQTWDRSTGVFGTGTKVTVL",binding result,[10],no binding
same,binding result,[11],no binding
same,binding result,[12],no binding
"anti-FAM19A1-2G7 (antibody, V domains shown, also called anti-FAM19A1 IgG1 antibody clone 2G7) VH: QVQLVESGGGLVKPGRSLSLSCTTSGFPFGDHAINWVRQAPGKGLEWVGFIRSNTYGGTTQYAASVEGRFTISRDDSKSIAYLQMNSLRAEDTAVYYCTKDITGGGFWSDYGDYFDAFDFWGQGTMVTVSS VL: SYELTQPLSVSVSPGQTASISCSGDKLGYKYASWYQQKPGQSPVVVIYQDKKRPSGIPERFSGSNSGNTATLTISGTQPMDEADYYCQAWDSGTASHVFGTGTKVTVL",Kd,[13],1.89 nM
"Anti-FAM19A1 2G7 mono scFv-phage clone (scFv, V domains shown) VH: QVQLVESGGGLVKPGRSLSLSCTTSGFPFGDHAINWVRQAPGKGLEWVGFIRSNTYGGTTQYAASVEGRFTISRDDSKSIAYLQMNSLRAEDTAVYYCTKDITGGGFWSDYGDYFDAFDFWGQGTMVTVSS VL: SYELTQPLSVSVSPGQTASISCSGDKLGYKYASWYQQKPGQSPVVVIYQDKKRPSGIPERFSGSNSGNTATLTISGTQPMDEADYYCQAWDSGTASHVFGTGTKVTVL",binding result,[10],no binding
same,binding result,[11],no binding
same,binding result,[12],no binding
"anti-FAM19A1-3A8 (antibody, V domains shown, also called anti-FAM19A1 IgG1 antibody clone 3A8) VH: QVQLQQSGPGLVKPSETLSLICSVSGDAITSGSYYWGWIRQSPGRGLEWIGEISHSGSTDYNPSLKSRVTISVDKSRNQFSLRLNSVTAVDTAVYYCAGDTALVGAYSIWGQGTMVTVSS VL: SYELTQAPSLSVSPGQTANIICSGDNLRTKYVSWYQQKPGQSPLLVIYQDTRRPSGIPARFSGSNSGNTATLTISGTQTRDESTYYCMTWDVDTTSMIFGGGTKLTVL",Kd,[14],56 nM
"Anti-FAM19A1 3A8 mono scFv-phage clone (scFv, V domains shown) VH: QVQLQQSGPGLVKPSETLSLICSVSGDAITSGSYYWGWIRQSPGRGLEWIGEISHSGSTDYNPSLKSRVTISVDKSRNQFSLRLNSVTAVDTAVYYCAGDTALVGAYSIWGQGTMVTVSS VL: SYELTQAPSLSVSPGQTANIICSGDNLRTKYVSWYQQKPGQSPLLVIYQDTRRPSGIPARFSGSNSGNTATLTISGTQTRDESTYYCMTWDVDTTSMIFGGGTKLTVL",binding result,[10],no binding
same,binding result,[11],no binding
same,binding result,[12],no binding
